Data reported in article PMC9162458.

Experiments:
[1] = biological target: LiRAD51^ATPase (Leishmania infantum RAD51 ATPase domain, residues 134–386) (Leishmania infantum); test: fluorescence polarisation; competition: 5 nM Fluor-NCys-LiBRC1 probe with 500 nM LiRAD51^ATPase, GB1-LiBRC repeats in serial dilutions; KD estimated from the fitted IC50; 50 mM Tris pH 8.0, 150 mM NaCl, 100 mM Li2SO4, 1% BSA, 0.1% Tween-20
[2] = biological target: LiRAD51^ATPase (Leishmania infantum RAD51 ATPase domain, residues 134–386) (Leishmania infantum); test: ITC; LiBRC1 peptide in the syringe, LiRAD51^ATPase in the cell; 25°C; 20 mM Tris pH 8.0, 150 mM NaCl, 100 mM Li2SO4; single-site binding model
[3] = biological target: Fluor-NCys-LiBRC1 probe (Leishmania infantum); test: fluorescence polarisation; direct titration: LiRAD51^ATPase in two-fold serial dilutions into 5 nM Fluor-NCys-LiBRC1 probe; 50 mM Tris pH 8.0, 150 mM NaCl, 100 mM Li2SO4, 1% BSA, 0.1% Tween-20

Substance	Kd [1] [nM]	further results
GB1-LiBRC1-His8 (BRC repeat 1 of Leishmania infantum BRCA2 fused to GB1) (domain or fragment)	290	
LiBRC1 free peptide		Kd [2]: 650 nM
LiBRC1.7 (C-terminal truncation of LiBRC1, residues up to Arg134 removed, GB1 fusion) (domain or fragment)	390	
LiBRC1.8 (C-terminal truncation of LiBRC1, Glu133 also removed, GB1 fusion) (domain or fragment)	2090	
LiBRC1.10 (C-terminal truncation of LiBRC1, Val131 also removed, GB1 fusion) (domain or fragment)	10100	
LiBRC1.11 (C-terminal truncation of LiBRC1 up until Gln129, GB1 fusion) (domain or fragment)	8700	
LiBRC2.1 (LiBRC2 Gly154 to alanine, GB1 fusion) (domain or fragment)	10600	
LiRAD51^ATPase (Leishmania infantum RAD51 ATPase domain, residues 134–386) (domain or fragment)		Kd [3]: 165 nM
